Measured values from the RNAGym collection of RNA variant scans (doi:10.1073/pnas.2313332121).
Fewer inactive variants are shown than the library holds.

B1: TPR 5TU (parent)
chain: GGAUCUUCUCGAUCUAACAAAAAAGACAAAUCUGCCACAAAGCUUGAGAGCAUCUUCGGAUGCAGAGGCGGCAGCCUUCGGUGGCGCGAUAGCGCCAACGUUCUCAACUAUGACACGCAAAACGCGUGCUCCGUUGAAUGGAGUUUAUCAUG

Variants of: B1
Assay: polymerase ribozyme fitness, log enrichment relative to wild type (log ratio); higher = more active; in vitro selection for triplet polymerase activity
How it was run: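 Mutant libraries of each subunit of a heterodimeric triplet polymerase ribozyme were built by PCR and transcribed. Each library went through one round of in vitro selection in triplicate: annealing with biotinylated primer, partner subunit and triplets, frozen incubation at −7 °C, gel excision of extended constructs, streptavidin-bead capture and RT-PCR. Input and output libraries were Illumina-sequenced; only genotypes with ≥10 input reads and ≥1 read per output were kept. Fitness is log2(genotype enrichment/wild-type enrichment), using inverse-variance-weighted replicate averages.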

Row | Variant | polymerase ribozyme fitness (log ratio)
1 | A12U C38G G59U | -0.492
2 | U13C C87A | ≤ -4.2
3 | A12U G50A C85A G88A A121G | ≤ -4.2
4 | U13G G83U C105U G117C U148A | ≤ -4.2
5 | A12U C54A C95U | -1.84
6 | U13G C38U C63U C76U A91G C93G C95U C149U | ≤ -4.2
7 | U13C G58C G67A G94C | ≤ -4.2
8 | A12U U56A C93U A147G | -1.6
9 | C14A A49C C85A U90G G94U A107G G141U | ≤ -4.2
10 | U13C C27U A37G C54U A106G U109G C123G G124A | -3.57
11 | U13A A40U U55A C129A | ≤ -4.2
12 | U13C C14U U77G G84U U145G U148A | ≤ -4.2
13 | U13G G83C C99G C118G C123U A137G | ≤ -4.2
14 | C14A A26U A29G C57G C93A G141C | ≤ -4.2
15 | C14A A19G G68A C99A C123U | ≤ -4.2
16 | U13A G50A U55A A89C | -3.57
17 | U13C U45G G81A C85U C118U G126A | ≤ -4.2
18 | U13A A16C A91G | -2.83
19 | C14A A17C C36A U44A U45A C54A C85G G88U C103G A110C | ≤ -4.2
20 | U13A C32U G67C C85A C105U G140A | ≤ -4.2
21 | U13C U33A C54A C95G A98C C99A A150G | ≤ -4.2
22 | A12U U15C U56A G92A A150G | -1.16
23 | A12U C87G | -4.2
24 | A12U C87A | -4.15

Row | Variant | polymerase ribozyme fitness (log ratio)
25 | U13G C36A C85U A115U U139C | ≤ -4.2
26 | U13C C27A A49C U56A A97U | ≤ -4.2
27 | U13G A40U C96G A121G | -2.57
28 | C14A A19G A26U C79A G83U A119C | ≤ -4.2
29 | U13A A30U U33G G46A G86A A91U A119G | ≤ -4.2
30 | U13G C35A G50A C54A C76G C87G A89U A107C G141C | ≤ -4.2
31 | U13C C35G C36G U55G G86U | -4.16
32 | U13G C14G C57A G71A U101G G124A G141A | ≤ -4.2
33 | U13C A16G A19C A28U C38U U55G A73C U77C C95G | ≤ -4.2
34 | U13G G80C G94U U134A | ≤ -4.2
35 | U13G C14G U31G | -1.43
36 | C14A A20C C96U | -1.32
37 | U13G A26U C96G A120G | ≤ -4.2
38 | U13G C96A | -0.681
39 | U13G C75A C108G G143A | ≤ -4.2
40 | U13A G58A C87U C105A C108U G124A U145A | ≤ -4.2
41 | U13G A26U C32G U33A C54G A66U C118A U144A | ≤ -4.2
42 | C14A C38A C93G | ≤ -4.2
43 | A12U G42C U61A A106U C132U | ≤ -4.2
44 | U13G A20U C57A C95A C96A U130C | ≤ -4.2
45 | U13G C85U | -1.63
46 | U13G C85A | -2.23
47 | U13A A30G A37C G68U | ≤ -4.2
48 | U13G A26G U31G C51G G88C | ≤ -4.2

Row | Variant | polymerase ribozyme fitness (log ratio)
49 | A12U U56A | -0.683
50 | U13A U61A C85U | -2.01
51 | U13A C57G C96A | -1.81
52 | U13C C14U C54A G92A | ≤ -4.2
53 | A12U C63A U78G C95U | ≤ -4.2
54 | A12U U53A U56A A66C A113C | ≤ -4.2
55 | U13C A21C A23C G92U A142G A147U | ≤ -4.2
56 | A12U G59A C75G U127G | -4.12
57 | U13G A40C C96G A119G | -1.98
58 | A12U G86A U101G | -0.714
59 | U13C C14G A66G A73G C95U A110G | ≤ -4.2
60 | C14A A19G G48U A66C A73G G84U U135A U151G | ≤ -4.2
61 | U13G C51G A91C | ≤ -4.2
62 | C14A A17G A22U A24C A41C G70A U78A U90C C129U | ≤ -4.2
63 | U13C G94A | -0.431
64 | U13C G94C | -0.0586
65 | C14A A17U A40U C57G G84U C96A A121C | ≤ -4.2
66 | C14A C35U G58A G86A C96U | -3.96
67 | A12U G59U C69A C96U | -2.45
68 | U13G U77G U145G U151G | ≤ -4.2
69 | U13G A37U C43U A52C A73C G84C U109C G140A | ≤ -4.2
70 | U13C G58U G94U C95U A142G U144G | -4.05
71 | U13G C57A | -0.243
72 | U13A C14A A60G C93U | -2.5

Row | Variant | polymerase ribozyme fitness (log ratio)
73 | U13A A21C A73G C85G A89U | -2.11
74 | U13G U56A G71A U135C | ≤ -4.2
75 | A12U U15C A49C G88C C123U G143C | ≤ -4.2
76 | U13G C87U | -1.62
77 | C14A A28U G46C U61A C95U U139C A150C | ≤ -4.2
78 | U13A C18G A30G G65U A91G A115C C118U U144G | ≤ -4.2
79 | U13A G25U C85G | -3.79
80 | U13G C35A A52C | ≤ -4.2
81 | U13C A29U A52C G86C A107C U109A | ≤ -4.2
82 | A12U C116G | -0.634
83 | U13A U55G C85U A121G | -1.11
84 | U13G A122C A142C | -2.05
85 | U13G U90G | -4.04
86 | U13G A49U | -2.21
87 | U13G A16U C85U U145G | -3.16
88 | C14A A23C A66U C93A G128U U151A | ≤ -4.2
89 | U13A A19U A37C U45A A49C C51U C76U G94A G133U U134A G140U U148A | ≤ -4.2
90 | U13C A52G U102C C118G | -3.18
91 | U13A C32G A37U A52G G94A G128A U146G | ≤ -4.2
92 | C14A A16C A19U U82A G83U C149U | -3.89
93 | A12U G67U G84A A110U | ≤ -4.2
94 | U13G G84A G143U | -3.44
95 | U13G G81U G86A C105U | -3.74
96 | A12U U82G | -1.49

Row | Variant | polymerase ribozyme fitness (log ratio)
97 | U13A A41C A91U C96U | ≤ -4.2
98 | C14A A29U C96A U101G G133C U144C | ≤ -4.2
99 | U13G G58A C95U C96G | -4.19
100 | A12U G84U | -1.97
101 | A12U G84C | -2.67
102 | U13C G58A G88U U90A U102G | ≤ -4.2
103 | U13C C18A A40C U53A G83A | -2.56
104 | U13G G65C G83A | ≤ -4.2
105 | A12U U45A U55G A66G U78C G88U C95G A137U | ≤ -4.2
106 | A12U G25U A37G A47C U77A C95G G141A | ≤ -4.2
107 | U13A A20G A28G G48A U146C | ≤ -4.2
108 | U13G A47G U55A C87U C96U U139G | ≤ -4.2
109 | A12U U56A A115G | -2.11
110 | U13C C93A C96A | -3.63
111 | U13G U31C C96A | -0.864
112 | U13C A17C G67C U77G A89C A120C | ≤ -4.2
113 | C14A A24U U90A | ≤ -4.2
114 | U13A C38U G83C G140A | ≤ -4.2
115 | C14A A41C C76U G84U | -2.89
116 | U13G C85U C96U G100A A115C | ≤ -4.2
117 | C14A C35U C57U G59C U134A | -4.18
118 | U13C U53A A91U A107U | ≤ -4.2
119 | C14A A39U A73G C95G | ≤ -4.2
120 | A12U C85U A97G C116U | -1.53

Row | Variant | polymerase ribozyme fitness (log ratio)
121 | U13A G94C | -1.19
122 | U13A U33A A52U A89G | ≤ -4.2
123 | C14A A37U A52G G83A G84A A115U | ≤ -4.2
124 | U13C A30U C36G C51U U55A C87A G126U | ≤ -4.2
125 | U13A A22U U53A G62C A64U U90A A91C C103A A106G C108U G126C | ≤ -4.2
126 | U13C A37G G126C | -1.85
127 | C14A A16G A20G U56A U82G A106G | -3.04
128 | A12U G81C G84A A115U | ≤ -4.2
129 | A12U C54U G86C | -3.04
130 | C14A C18U A22U A26U U82C C95U U145G U148C C149U | ≤ -4.2
131 | U13A C51U C54A G86U C116U A120G | ≤ -4.2
132 | A12U G48A C96A | -2.05
133 | U13C U44A U56A C79U C93G C95U A115C G141U | ≤ -4.2
134 | U13G C14G U31A A41C G86A U90G G100A C131A | ≤ -4.2
135 | U13G A40U A60C | ≤ -4.2
136 | U13C A19G U45G C93A A106U | -2.34
137 | U13C A20C G50C | -3.15
138 | A12U G42C C51U C93U C123A G124U | ≤ -4.2
139 | C14A A16C A28G A60G C79G A91G U109A | ≤ -4.2
140 | C14A A60G C85G C118G C132U | -3.89
141 | U13G C36U A47U G84A A122G A138U | ≤ -4.2
142 | C14A C36U U45C C87U C105A G133U | ≤ -4.2
143 | A12U U55G A142C | -1.46
144 | U13A A28U C36U G81C | ≤ -4.2

Row | Variant | polymerase ribozyme fitness (log ratio)
145 | U13A C14G A19U U53A U55A G86C U135A | ≤ -4.2
146 | U13G G136A A137G C149U | -3.07
147 | U13A C38U | -0.321
148 | A12U G50U C72U G126A | -1.33
149 | A12U C87A A113U A115C U148A | ≤ -4.2
150 | U13G U53A A66C G83U C149A | ≤ -4.2
151 | A12U C54U G59C A60G U144G | -0.245
152 | U13C C35A A91U C95A U104C C131G | ≤ -4.2
153 | U13G A17G C96A G143C | -4.19
154 | C14A A64U C93U G141A | ≤ -4.2
155 | A12U G58A | -0.217
156 | U13G A41C U55G G94C C116A G143U U151G | ≤ -4.2
157 | U13C U44A U55A G59U G84A A150C | ≤ -4.2
158 | U13G G94C C114G G143A | ≤ -4.2
159 | C14A A16G | -0.651
160 | A12U C38U G83U | -0.788
161 | U13G C18G U45A G59U U104G U134C G140U U144A | ≤ -4.2
162 | U13A G34U A49C G140A A142U | ≤ -4.2
163 | C14A A17U A24C C57U G58C C87A | ≤ -4.2
164 | A12U U56G A91G | -2.61
165 | U13A A91G C114U A120G | -4.09
166 | U13C C32A A49C | ≤ -4.2
167 | U13C C38U G86A G124C | -1.98
